Our source for the Response values is US20220218785A1 (ALPINE IMMUNE SCIENCES, published 2022).

Holding throughout (test): ForteBio Octet BLI, receptor on AHC sensor
In general terms: Biolayer interferometry detects binding as a change in optical thickness at a sensor tip.

Experiment [1] has as its target CD28 receptor loaded onto anti-human capture sensor (ForteBio Octet AHC) (UniProt P10747 19-152). Here is the method: (§1) Each titration was globally fit to calculate the association (kₒₙ) and dissociation (Kdis) of each protein. […] The dissociation constant (KD) was calculated and compared to wildtype to determine a fold improvement value (fold imp.).
In experiment [2] the target is CTLA-4 receptor loaded onto anti-human capture sensor (ForteBio Octet AHC) (UniProt P16410 37-162, limits assumed). Here is the method: as §1
CTLA-4 receptor loaded onto anti-human capture sensor (ForteBio Octet AHC), sequence (P16410 37-162 limits assumed): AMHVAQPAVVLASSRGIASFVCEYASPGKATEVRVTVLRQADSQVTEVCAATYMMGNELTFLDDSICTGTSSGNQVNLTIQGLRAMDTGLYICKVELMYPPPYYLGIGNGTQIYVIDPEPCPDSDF
Experiment [3] concerns the target T1, ICOS receptor loaded onto anti-human capture sensor (ForteBio Octet AHC) (UniProt Q9Y6W8 21-141, limits assumed).
T1 sequence (looked up): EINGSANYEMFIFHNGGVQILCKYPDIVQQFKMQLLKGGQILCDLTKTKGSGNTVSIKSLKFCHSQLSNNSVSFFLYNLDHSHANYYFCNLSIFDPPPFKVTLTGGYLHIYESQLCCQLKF
Here is the method: as §1

B1: wildtype PD-L2 ED-Fc fusion molecule (Fc fusion, UniProt Q9BQ51 20-220, looked up)
chain: LFTVTVPKELYIIEHGSNVTLECNFDTGSHVNLGAITASLQKVENDTSPHRERATLLEEQLPLGKASFHIPQVQVRDEGQYQCIIIYGVAWDYKYLTLKVKASYRKINTHILKVPETDEVELTCQATGYPLAEVSWPNVSVPANTSHSRTPEGLYQVTSVLRLKPPPGRNFSCVFWNTHVRELTLASIDLQSQMEPRTHPT
notes: extracellular domain; Control protein in the ForteBio assays; also called PD-L2-Fc; not shown: Fc part and any linker are not described
For the molecule B1, the Response in experiment [1] is -0.04; in experiment [2], 0; in experiment [3], 0.03.
